Protease stability score data for 33 sequences are collected here from the NTF2 design screens of Basanta et al. (2020).

This series can be described thus: protease stability score; higher = more stable; yeast display proteolysis, trypsin and chymotrypsin.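 Note: relative to predicted unfolded state with 0 unfolded-like and 1 meaning tenfold more protease.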
On to “DEEERDAIHAFRDFVKNFITGNEDRIDELADPHMRSDINGVSIHGWEEFSRHTLREMKRFDHIEFRIRDIKIQGNYIHIDTEVILRVNGRTFSTRMVLIWLKVNGKWFLHEIDVR”, for which the protease stability score amounted to 1.35. Turning to “DEDEEEIKRMIEEWFRSLVTGDEHQLKELMDPHVRLDINGVEHIGREEIVERLVKEARQADHMEFRVRDVRLVGDYAEIDGELIVNYNGREKSIETRIILWKFNGRWIDHQVHYK”, the protease stability score was 1.03. The figure for “KEEEEEARQAWDLLHNIMKTGDEHQLMSLVDPNYLNIAEGREFHGREVFYHYMHELRVKWEHMHLKDYRVYNGRIRTEEHLVVHYEYGDKHDSLRTDVHLKDVKINGRWRVRHLHII” is 0.78; for “DKEEEEVREALRILLEEWHTGDFDRILDLFDPNDRMHIGDKDLHGRHIMEHFYDHMIKRVKNMRIELTDVRFQGDKVWFHVKEHFDGRTISSEIVLVKINGKWRIETIFII” it is 1.46; for “DNEERYMIKLLHMLWLAFLTGDEELWYKLADPHVRWTFENREIHGREQFVKEQRRIKNMRIEMELKDVRVQGDKIHTDGHLEINQGDKHIHTDVRLHLVVINGRLHEFHVTLV” it is 1.54. The figure for “SELDEEAEEALRITFEMLITGDWEFLNHYVDPDAKLNIGDKEHHGRETVITFVKEISRKLGIKVIRFRHIEVQVFNGKVDIHIHGVVEWNGRREEFRIIIILHKIDGQWHIREMRVHIR” is 2.4; for “DDKEETARRILDWITKLLLTGDFDTLHRMADPHMRSNYGEFEMHGMEEHSEWWHRLTLRVDHLREEIKRVTVVNGKIVADLRLRFIIGDKVEVRDITVELIVVDGRLKELRFDVK” it is 1.14. To “DEHRRELKEAIEMMLTALYTGDEKILLELIDPNTRLDVNGRELHGRDDWVEETRRIKNLKFHVHHIDVQGEKIHVDGLVIFNGRERRVHYNAEKYDGRWILTHINVR” belongs 1.22; to “NEDEEIWRKAHEFMIHAMKTGDEDVEKSLFDPHTRFEQGDKELHGREMIEHLLRLLRERFPNVQIRRMEIQHWDHFNGVLIEFGELRVDVNGRTVSLRIIIYAEKINGQWHVKRVEFD”, 1.52.

The sequence “DERERDARKAVKDFIESIRTGDEDEIEKLLDPHVRVDAPNHERHGREEVVEELREMRIEIRDVRFRHIHVQGNKIEVHVRVHGSLMINGREYRIDTTMIIIMEKIDGRWILTHIEEK” returned a protease stability score of 1.62. To “DEDERNHEEIWELFLRVVMTGDWNLHKEMLDPHVRIDIDGVHIHGREEAVKHIRHLRVELNHFHIEDVKIVNGRARIQTHEEVTIRIDGVRIETRRSTELIMIKVDGRWLLHHEIVR” belongs 0.524. To “SELHKFAEELSRRWFEMVLTGDEDSLNELADPNVRNDVNGRELIGRESFAKWVKELRIEDVRHKRSRIEVQGDKMIIHMDIESVVTIDGVRRDQRYEIIIISRKVNGRWLVHSVEFRVE” belongs 1.18; to “TDEDEAAELIIRLLEELHHTGDEDKLRDLMDPHVRMDIDGKDFHGRETYLEHLHHRLVNWGVDRIKVEIRLKHSEIQGEKLILETDWIVIFDGVRYEMKVRLILIKVNGRWVLKSSHFK”, 1.32; to “SEKEKDSRIAIELSLKLVLTGNPEMNRELVDPHARVEVGEKEYHGRDWVRYQLELLGIDHFEIHHVDMYGEYVDVTLELRVGDKSFRLILHLEKIDGRWIVRKVHVD”, 2.14.

In turn, “SEDEEEHKEMLRILIHDNRTGDEDSFRDMFDPNVRFEQGEWSAHGRDWAEHVMRRADHVKLDLQTMDTQGDKVILHGRLILLQGEKRIDEKVIFIIRKIDGKWILESVHFH” displayed a protease stability score of 1.21. To “DEDEKEQKEIADLWKKYVDTGDEKLLMELMDPTARLNIGDKRFHGRETFEHVMREIKKRYDHFELHIHHIDIQGEKIRMEGREINKFDGKTVDIRTRIRIIVVNGRITFLHHQLD” belongs 0.622; to “TEEEHWALHLLERILHHMLTGNESFIKHLFDPDTRWEVNGVENIGMERHSKLFLHMRIESIEIRSIHVRIVGEYIHIDVEIDIRGIVNGQRVEYHKKIHVIISKVNGRWHIKHYHESDE”, 1.22. To “TEEEEHLHTLASKDLKAFMTGDWETHKKLADPHVRFELVVGEWRLILHGRERFIEFLIEVLEKMGVDHFHLQHVEVIGNFVRLNIKIEVGDKTHDTRIDLEYINGVIHDVRVEFK” belongs 2.02.

As to “HDREKLMEELVKNWIHLLKTGDEDQLHRLLDPHAKWDINGRELHGMEHINRRISEWRIEFNERHVEVIGEKIHIEGDLRVEIDGRRDEFHSEIELVIVNGRVKEIIVREG”, the protease stability score worked out at 0.895. To “DSHYHLFIYNMELLSTLLKTGDEHRNTEMFDPHVRIVVGEKEIHGREDVEKYLREIRIEEMRFHLRRLDVQGEKVTVEGELRIRFWIGDKEHEHNEDARIHLLKINGRWRLKEIESK” belongs 2.43; to “SEEDELTRELVELWLHVFHTGDEEIMYKLADPNARVDVLIDGKRLDLVGREEIRRFLHEWHREAGFKHFDLHDIHFQGEKVHIDGREVYGDKFFRVIIHIHIVNGRIKSTKIEIR”, 1.67.

For the sequence “DEEEKLLEKMFKDLIRDLLTGDEESFHKLADPNMRLNQGDFQIHGWEDVQRVLRWRMHEMRIHHLHIHHLHFFDGKLHIDGESDIEFNGVRQNRRVEILIKKVDGKWELKEVIIR”, the protease stability score came out at 2.28. The figure for “TEKEEIVEETMKQLLHAEETGDWRTIEHLLDPNTRIIVEFNGVEIVLHGREEAVKFMFDFARHWRIKDFKVESIDIQGNKVHMRIRVDMEFNGKHIRTETNIHTVVVDGRIKSHERRVE” is 1.63; for “SEDEDELKEWIRIIIHLLTTGNEDLIENNADPNVRIEFNGKTYHGMEDFHEWMRYAINELRFHDFRLDSFRIVNGKVDLNTTLIGNINGVLTRRETRMIIIKVNGRWLIHALVFK” it is 1.75. In turn, “SEREEYSHRAVELLIHLLRTGDEDMISKLADPNTYLDWNGREEVGMEDWLRLLREMRIHDVIIHTIEIQGDKIHMDVIIDGEFDGRRTEMRVHLILLKVNGRWVLTEVKIH” came in with a protease stability score of 1.03. The figure for “SDEERDSRKAEEKWIRTLETGDERIITELADPNVRLEIGDKTFHGREDFYKFMTYLTRHLRVERFEIKRFDFQGEWIHMKTHINMRVGEFSHHSDTEIVAYKVNGRWVIHNVRVE” is 0.831; for “SEDKKTLEHYFRELMHVLQTGDETEFVKLLDPDARLIIGDKSDHGREEVSRSLLEFQRILGIDHLEFRHTHLDIQGDKITIILQVRMKVNGREHHSRLIFVAEKVNGRWVLRSVIFEIH” it is 2.18.

For “DEDERHMEKMWRDWVHARYTGDEHRLDELFDPDARMLIDGVDAVGREEVHRLLHKMLKRLGIKHIEHVRITHIEIQGDKIHIENEIRGIVGDKTTTVEVHLVIIKVDGQWRIRSVEEK”, the protease stability score worked out at 1.14.

Consider “DDEEDKAREAFKMLQELVNTGNEELLYQYFDPNYRLDVDGRQIHGREAVVNERRKRFEMWGVEQVRLHIDTWDIIGNKVKLDGHLNFNGVIKKTHIHLLKVNGRWVIESERIE”, for which the protease stability score was 1.08. Sequence “DEEEKHLRDMMEIVIKLFMTGDWDAFHEMADPDVKFQVDVGDKHIHRHGREEVVEELIRLLEHWRVRNIRIHDIKLIGDKLVVEGRWETSYGDKSHDEDVELIVIVVDGKIKKVRIIIR” showed a protease stability score of 2.72. The figure for “SEDDEMLKLFFELVHRFHLTGDETNHLNNMDPHARMNAENWRRHGRHALEQLRTRFDHIDHVHLDHYETFDGRLILHVTVDGQFDGVRDRNTLHIVMKKINGRWIMEELRIQ” is 1.23; for “DEEHEAIEQFLRIIIENARTGNEEFLYKYFDPHVRIHIDGQNMVGREEWVEWLRQIRHQVDSFHIKHIEVQGDKLILEGHLEIKLHINGQELHKHVEVRYEINKVNGRWLLRSVHIK” it is 1.74; for “DEDEEEARKSFKHLLRSRMTGDEDSLKSLIDPNARFDIDGKELIGREAEELLLEKFKNIKLHDVKLNDWRVDEHHVVWRIELDGFYNGKRDSLDFTLIVKKVNGRWVIHQVKLI” it is 1.39.
